According to patent US20200093866A1, “Use of selected single cobrotoxin molecule as an analgesic” (priority 2018, published 2020):

Tests used:
[1] = test system: Wistar rats; assay: Tail flick test (thermal radiation), Periaqueductal Gray injection; type: in vivo; details: PAG injection; for latency induced by thermal radiation (tail flick): 1.5, 3.0 and 6.0 μg/kg; for time at which analgesic effect appeared / time at which analgesic effect peaked: after drug administration; for maximum increase of pain threshold: tail flick
Description: Most commonly, an intense light beam is focused on the animal's tail and a timer starts. When the animal flicks its tail, the timer stops and the recorded time (latency) is a measure of the pain threshold.
METHODS: Periaqueductal Gray (PAG) was injected with selected cobrotoxin molecule in rats, and the central analgesic effect was evaluated by the tail flick due to thermal radiation. 20 Wistar rats with a weight of 200±20 g were divided into 2 groups, 10 per group. […] The analgesic effect of Chain A, Cobrotoxin and Chain A, Cobrotoxin B appeared in 10˜15 minutes and peaked at 25˜30 minutes after drug administration. The maximum increase of pain threshold was over 200%.

[2] = test system: Kunming mice; assay: Respiratory inhibition test; type: in vivo; details: effective dose of 60 μg/kg, 10 Kunming mice
Source text: 4) Respiratory inhibition test Chain A, Cobrotoxin and Chain A, Cobrotoxin B were separately administered to 10 Kunming mice of 20±2 g.

[3] = test system: Kunming mice; assay: Acetic acid writhing test, nasal administration; type: in vivo; details: for frequency of writhing induced by acetic acid: 30, 45 or 60 μg/kg nasal; for frequency of writhing induced by acetic acid / ED50 of the anti-nociceptive effect of acetic acid induced writhing / time at which analgesic effect started: mice; for duration of analgesic effect / ED50 of the anti-nociceptive effect of acetic acid induced writhing / time at which analgesic effect started: nasal administration; for duration of analgesic effect: after drug administration
Description: Writhing test for the evaluation of analgesic effect by nasal administration METHOD: A total number of 60 Kunming mice were used, 10 per group, with a weight of 20±2 g. […] The analgesic effect started at 30 minutes and lasted at least for 6 hours after drug administration.

[4] = test system: Kunming mice; assay: Acetic acid writhing test, oral administration; type: in vivo; details: for frequency of writhing induced by acetic acid: 160, 320 or 480 μg/kg oral; for ED50 of the anti-nociceptive effect of acetic acid induced writhing: oral administration
Source text: Writhing test for the evaluation of analgesic effect by oral administration METHOD: A total number of 60 Kunming mice were used, 10 per group, with a weight of 20±2 g.

[5] = test system: Kunming mice; assay: Acetic acid writhing test, parenteral (iv) injection; type: in vivo; details: for inhibitory rate of mice writhing / time at which analgesic effect started: 60 μg/kg iv; for inhibitory rate of mice writhing: 90 minutes after administration; for time at which analgesic effect started / frequency of writhing induced by acetic acid / ED50 of the anti-nociceptive effect of acetic acid induced writhing: mice; for frequency of writhing induced by acetic acid: 30, 45 or 60 μg/kg iv; for ED50 of the anti-nociceptive effect of acetic acid induced writhing: iv
Description: Writhing test for the evaluation of analgesic effect by parenteral injection The writhing test is a chemical method used to induce pain of peripheral origin by injection of irritant principles like acetic acid in mice. Analgesic effect of the test compound is inferred from the decrease in the frequency of writhing.
METHOD: A total number of 60 Kunming mice were used, 10 per group, with a weight of 20±2 g. […] At dose of 60 μg/kg (iv), The analgesic effect started at 30 minutes, and could reach 60˜70% inhibitory rate of mice writhing at 90 minutes after administration. The ED50 of the anti-nociceptive effect of acetic acid induced writhing was 40˜50 μg/kg in the writhing test for Chain A, Cobrotoxin and Chain A, Cobrotoxin B.

[6] = Quantitative microdialysis of unbound brain extracellular fluid (bECF) concentration after IV injection; type: in vivo, rat; details: rats, 125I-labeled, 120 μg, dialysate over 360 minutes, FIG. 4
Source text: The estimated molecular weights of Chain A, Cobrotoxin, Chain A, Cobrotoxin B are 6.9±0.6 KDa; the estimated molecular weights of a cobrotoxins complexes extracted from crude venom ranged from approximately 6.5 KDa to 15 KDa. Quantitative microdialysis (QMD) is used to determine the absolute unbound brain extracellular fluid (bECF) concentration of Chain A, Cobrotoxin, Chain A, Cobrotoxin B, and the cobrotoxins complexes. QMD is the only technique that enables sampling of bECF in conscious animals and provides direct evidence of exposure at extracellular target sites (Kielbasa and Stratford, Jr. 2015)
QMD consists of implanting a probe in rat (FIG.-3). The membrane of the probe will allow the exchange of perfusate with bECF, so the concentration of Chain A, Cobrotoxin, Chain A, Cobrotoxin B, and a cobrotoxins complexes in bECF could be measured through dialysate. […] In response, an in vivo recovery rate test of the probe (MD-2200) was performed on 125I-labeled Chain A, Cobrotoxin, Chain A, Cobrotoxin B, and a cobrotoxins complexes, each with three different concentrations of 5, 25, and 50 ng/ml as perfusate, with a flow rate of 2 μL/min was perfused through the probe. During microdialysis, the dialysate was collected every 10 minutes for an hour, then tested using SN629B-radioimmunoassay counter to calculate cpm. […] The recovery rate (by loss) % was calculated as: […]

[7] = target: T1, nAChR (Rattus norvegicus, UniProt P09660+P25108+P25110); assay: 125I labeled-αBtx-nAChR binding inhibition test (radio-immunoprecipitation); details: nAChR crude extract from rat skeletal muscle; approximate
T1 construct: nAChR crude extract from rat skeletal muscle; from tissue; host or cells: rat skeletal muscle (crude extract)
Source text: As shown in FIG.-2, a total of 12 fractions from the aforementioned ion-exchange chromatography were further desalted and purified by a reverse-phase HPLC (RP-HPLC) with Vydac RP-C18 (4.6×250 mm, 5.0 um). Fractions A and B were identified as high-affinity cobrotoxins with enhanced binding ability to nAChR in a later 125I labeled-αBtx-nAChR binding inhibition test. • 2) Screening and selection of single cobrotoxin molecule with high affinity binding to nAChR for better drug target engagement The 125I labeled-α-bungarotoxin(αBtx)-nAChR binding inhibition test was performed to evaluate the affinities of different cobrotoxins molecules. […] Higher the affinity of cobrotoxin with nAChR, greater the inhibitory rate toward α-bungarotoxin's binding to nAChR. In our radio-immunoprecipitation test, only nAChR bonded α-bungarotoxin will be precipitated with nicotinic acetylcholine antibody (mAb 35) and Rabbit Anti-Rat IgG, whilst unbounded α-bungarotoxin will be washed out. By testing the concentration of bonded α-bungarotoxin, we can determine the inhibitory rates of different cobrotoxins molecules isolated in step 1).
Calculation of “125I-αBtx-nAChR binding inhibitory rate (%)” […]
The 125I-αBtx-nAChR binding inhibition experiment process is performed and described in following sequence: • i. […] The (Bq) value per second was measured using the gamma radioimmunoassay counter.

[8] = test system: mice; details: i.c.v. injection, mice (Chen and Robinson, 1990); cited from earlier work

T1 sequence (P25108 21-457): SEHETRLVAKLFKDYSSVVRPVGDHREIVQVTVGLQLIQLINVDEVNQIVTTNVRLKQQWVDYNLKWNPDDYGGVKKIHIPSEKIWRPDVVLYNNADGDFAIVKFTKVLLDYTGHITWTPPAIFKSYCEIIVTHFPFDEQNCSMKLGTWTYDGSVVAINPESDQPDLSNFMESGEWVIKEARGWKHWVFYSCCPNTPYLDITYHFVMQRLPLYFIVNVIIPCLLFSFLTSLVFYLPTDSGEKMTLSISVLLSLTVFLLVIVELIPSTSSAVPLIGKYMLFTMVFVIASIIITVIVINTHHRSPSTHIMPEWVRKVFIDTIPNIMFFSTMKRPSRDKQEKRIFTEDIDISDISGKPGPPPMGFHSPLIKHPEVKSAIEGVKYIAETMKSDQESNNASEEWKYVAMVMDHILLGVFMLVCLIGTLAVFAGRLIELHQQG
T1 sequence (P25110 22-517): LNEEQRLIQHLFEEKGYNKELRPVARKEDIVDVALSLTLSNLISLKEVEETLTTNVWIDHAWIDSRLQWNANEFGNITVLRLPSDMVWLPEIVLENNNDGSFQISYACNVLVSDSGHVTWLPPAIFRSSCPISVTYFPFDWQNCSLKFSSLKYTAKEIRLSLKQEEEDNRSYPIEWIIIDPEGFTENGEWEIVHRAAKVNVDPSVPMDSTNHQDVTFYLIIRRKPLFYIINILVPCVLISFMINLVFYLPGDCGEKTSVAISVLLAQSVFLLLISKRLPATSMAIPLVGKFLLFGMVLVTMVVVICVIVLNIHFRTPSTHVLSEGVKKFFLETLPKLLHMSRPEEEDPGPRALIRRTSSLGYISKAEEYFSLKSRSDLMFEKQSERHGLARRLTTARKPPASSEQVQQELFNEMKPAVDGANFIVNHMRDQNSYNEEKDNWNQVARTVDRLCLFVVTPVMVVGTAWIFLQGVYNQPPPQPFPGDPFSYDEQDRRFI
T1 sequence (P09660 21-494): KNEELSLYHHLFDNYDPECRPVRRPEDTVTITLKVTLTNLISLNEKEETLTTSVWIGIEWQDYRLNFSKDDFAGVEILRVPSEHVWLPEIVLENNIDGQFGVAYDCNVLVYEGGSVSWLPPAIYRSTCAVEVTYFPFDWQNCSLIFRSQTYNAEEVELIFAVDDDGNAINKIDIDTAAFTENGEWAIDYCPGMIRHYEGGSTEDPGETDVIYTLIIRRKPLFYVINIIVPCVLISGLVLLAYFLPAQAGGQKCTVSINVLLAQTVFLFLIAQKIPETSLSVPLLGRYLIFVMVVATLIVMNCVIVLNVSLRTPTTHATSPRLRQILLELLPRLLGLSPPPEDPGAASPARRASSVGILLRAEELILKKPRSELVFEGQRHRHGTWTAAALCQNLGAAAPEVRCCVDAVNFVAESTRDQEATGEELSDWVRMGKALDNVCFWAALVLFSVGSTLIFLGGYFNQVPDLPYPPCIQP
T1 sequence (P25109 24-501 partner): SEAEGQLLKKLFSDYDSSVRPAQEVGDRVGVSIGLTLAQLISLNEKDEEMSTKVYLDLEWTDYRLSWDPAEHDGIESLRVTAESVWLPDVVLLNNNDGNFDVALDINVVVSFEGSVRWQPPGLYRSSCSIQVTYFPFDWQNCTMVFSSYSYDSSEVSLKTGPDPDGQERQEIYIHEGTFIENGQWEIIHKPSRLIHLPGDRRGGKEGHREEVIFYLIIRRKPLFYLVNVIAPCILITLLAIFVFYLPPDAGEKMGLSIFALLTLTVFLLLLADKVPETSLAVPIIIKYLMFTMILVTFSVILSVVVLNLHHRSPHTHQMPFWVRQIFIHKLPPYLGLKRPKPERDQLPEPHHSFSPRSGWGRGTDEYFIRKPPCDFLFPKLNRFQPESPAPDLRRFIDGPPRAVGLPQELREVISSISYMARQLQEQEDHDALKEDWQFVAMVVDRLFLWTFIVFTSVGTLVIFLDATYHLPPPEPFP

| Molecule | latency induced by thermal radiation (tail flick) [1] | ED50 of the antinociceptive effect of thermal radiation-induced tail flick [1] | time at which analgesic effect appeared [1] | time at which analgesic effect peaked [1] | maximum increase of pain threshold [1] | respiratory inhibition [2] | frequency of writhing induced by acetic acid [3] | duration of analgesic effect [3] [h] | ED50 of the anti-nociceptive effect of acetic acid induced writhing [3] | time at which analgesic effect started [3] [min] | frequency of writhing induced by acetic acid [4] | ED50 of the anti-nociceptive effect of acetic acid induced writhing [4] | inhibitory rate of mice writhing [5] | time at which analgesic effect started [5] [min] | frequency of writhing induced by acetic acid [5] | ED50 of the anti-nociceptive effect of acetic acid induced writhing [5] | time course of reaching bECF brain concentration versus cobrotoxins complexes [6] | 125I-αBtx-nAChR binding inhibitory rate [7] | antinociceptive response in tail-flick test [8] |
| --- | --- | --- | --- | --- | --- | --- | --- | --- | --- | --- | --- | --- | --- | --- | --- | --- | --- | --- | --- |
| Chain A, Cobrotoxin B | dose-dependent increase | 3.3˜4.0 μg/kg | 10˜15 minutes | 25˜30 minutes | over 200% | No respiratory inhibition was observed | dose-dependent decrease | ≥ 6 | 38˜46 μg/kg | 30 | dose-dependent decrease | 300˜350 μg/kg | 60˜70% | 30 | dose-dependent decrease | 40˜50 μg/kg | always ahead of the cobrotoxins complexes in reaching a specific concentration | 40%-50% | – |
| cobrotoxin (protein, UniProt P60770 22-83, looked up) Cobrotoxin: LECHNQQSSQTPTTTGCSGGETNCYKKRWRDHRGYRTERGCGCPSVKNGIEINCCTTDRCNN | – | – | – | – | – | – | – | – | – | – | – | – | – | – | – | – | – | – | produced an antinociceptive response |
| Chain A, Cobrotoxin (protein, UniProt P60770 22-83, looked up) Cobrotoxin: LECHNQQSSQTPTTTGCSGGETNCYKKRWRDHRGYRTERGCGCPSVKNGIEINCCTTDRCNN | dose-dependent increase | 3.3˜4.0 μg/kg | 10˜15 minutes | 25˜30 minutes | over 200% | No respiratory inhibition was observed | dose-dependent decrease | ≥ 6 | 38˜46 μg/kg | 30 | dose-dependent decrease | 300˜350 μg/kg | 60˜70% | 30 | dose-dependent decrease | 40˜50 μg/kg | always ahead of the cobrotoxins complexes in reaching a specific concentration | 40%-50% | – |
